Experiment: yeast display, Sf9 membrane polyspecificity reagent, FACS + sequencing; frameworks hold sequencing errors
Summary of the method: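 A synthetic nanobody library was expressed on Saccharomyces cerevisiae BJ5465 by galactose induction for 36–48 hours. The library was stained for 1 hour at 4 °C with 10% biotinylated, detergent-solubilized Sf9 membrane reagent and enriched with streptavidin microbeads before FACS. Low and high (top ~1%) gates were set on anti-HA fluorescence for expression and streptavidin fluorescence for reagent binding, and each polyreactivity label reflects the gate of origin.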
For “QVQLVESGGGLVQAGGSLRLSCAASGSIFYTNAMGWYRQAPGKERELVASIRTGGSTNYADSVKGRFTISRDNAKNTVYLQMNSLKPEDTAVYYCNADDPDYHGSIDDLDYDYWGQGTQVTVSS”, the “polyreactivity (PSR sort gate)” value was “low polyreactivity”. For “QVQLVESGGGLVQAGGSLRLSCAASGSIFYTYAMGWYRQAPGKERELVAAISWSDTTTYYAVSVKGRFTISRDSAKNTVYLQMNSLKPEDTAVYYFAADAYTNSYWYDYWGQGTQVTLSS”, the “polyreactivity (PSR sort gate)” value was “high polyreactivity”. In the case of “QVQLVESGGGLVQAGGSLRLSCAASGSIFYTYAMGWYRQAPGKERELVAAITYRVGSTYYADSVKGRFTISRDNAKNTVYLQMNSLKPEDTAVYYCNADKGGHVRHYDYWGQGTQVTVSS”, the “polyreactivity (PSR sort gate)” value is reported as “low polyreactivity”. In the case of “QVQLVESGGGLVQAGGSLRLSCAASGSIFYTYAMGWYRQAPGKERELVADISSRGGSTYYADSVKGRFTISRDNAKNTVYLQMNSLKPEDTAVYYCNAPQGFVWRYSSWGPYDYWGQGTQVTVSS”, the “polyreactivity (PSR sort gate)” value is reported as “high polyreactivity”. For “QVQLVESGGGLVQAGGSLRLSCAASGSIFYTYVMGWYRQAPGKERELVAAISGTGGRTYYADSVKGRFTISRDNAKNTVYLQMTSLKPEDTAVYYCATRAYHKGFYRITYYYWGQGTQVTVSS”, the “polyreactivity (PSR sort gate)” value was “high polyreactivity”. With “QVQLVESGGGLVQAGGSLRLSCAASGSIFYVNAMGWYRQAPGKEREFVADITWSSGGRTYYADSVKGRFTISRDNAKNTVYLQMNSLKPDDTAVYYCAAPRYYYYSYDYWGQGTQVTVSS” the “polyreactivity (PSR sort gate)” value was “high polyreactivity”. With “QVQLVESGGGLVQAGGSLRLSCAASGSIFYVNAMGWYRQAPGKESELVAAISFSGGTTYYADSVKGRFTISRDNAKNTVYLQMNSLKPEDTAVYYCNTPSSREMDYWGQGTQVTVSS” the “polyreactivity (PSR sort gate)” value was “low polyreactivity”. In the case of “QVQLVESGGGLVQAGGSLRLSCAASGSIFYVNTMGWYRQAPGKEREFVAAISGSGGSTRYADSVKGRFTISRDNAKNTVYLQMNSLKPEDTAVYYCAADRYTYIWYHIYDYWGQGTQVTVSS”, the “polyreactivity (PSR sort gate)” value is reported as “low polyreactivity”. With “QVQLVESGGGLVQAGGSLRLSCAASGSIFYVNTMGWYRQAPGKERELVAGITSRGGSTYYADSVKGRFTISRDNAKNTVYLQMNSLKPEDTAVYYCAKRAYGTALYRGYGYWGQGTQVTVSS” the “polyreactivity (PSR sort gate)” value was “low polyreactivity”. For “QVQLVESGGGLVQAGGSLRLSCAASGSIFYVNTMGWYRQAPGKERELVAVIDYGGDSTYYADSVKGRFTISRDNAKNTVFLQMNSLKPEDTAVYYCAADAYESGNWEANGYWGQGTEVTVSS”, the “polyreactivity (PSR sort gate)” value was “low polyreactivity”. With “QVQLVESGGGLVQAGGSLRLSCAASGSIFYVYAMGWYRQAPGKERELVAAISWRGGSTYYADSVKGRFTISRDIAKITVYLQMNSLKPEDTAVYYCNADWSFWGQGTQVTVSS” the “polyreactivity (PSR sort gate)” value was “high polyreactivity”. For “QVQLVESGGGLVQAGGSLRLSCAASGSIFYVYAMGWYRQAPGKERELVAAITNYADSVMGRFTISRDNAKNTVYLQMNSLKPEDTAVYYCAADWWRVEMDYWGLGTQVTVSS”, the “polyreactivity (PSR sort gate)” value was “low polyreactivity”. With “QVQLVESGGGLVQAGGSLRLSCAASGSIFYVYAMGWYRQAPGKERELVAAITSSGDTTYYADSVKGRFTISRDNAKNTVYLQMNSLKPEDTAVYYCAKVFGPTDYLTGTFKGDYWGQGTQVTVSS” the “polyreactivity (PSR sort gate)” value was “low polyreactivity”. In the case of “QVQLVESGGGLVQAGGSLRLSCAASGSIFYVYAMGWYRQAPGKERELVAAITWIDGSTYYADSVKGRFTISRDNAKNTVYLQMNSLKPEDTAVYYCAAGGYFYSFYYWGQGTQVTVSS”, the “polyreactivity (PSR sort gate)” value is reported as “low polyreactivity”. In the case of “QVQLVESGGGLVQAGGSLRLSCAASGSIFYVYAMGWYRQAPGKERELVADITTRDGDTYYADSVKRRFTISRDNAKNTVYLQMNSLKPEDTAVYYCAADLNAYPLRAYDYWGQGTQVTVSS”, the “polyreactivity (PSR sort gate)” value is reported as “low polyreactivity”. In the case of “QVQLVESGGGLVQAGGSLRLSCAASGSIFYVYAMGWYRQAPGKVRELVAAITSSGTTNYADSVKGSFTISRDNAKNTVYLKMNSLKPEDTAVDSCAADPDSGQVPFDYLGQGTQVTVSS”, the “polyreactivity (PSR sort gate)” value is reported as “low polyreactivity”. For “QVQLVESGGGLVQAGGSLRLSCAASGSIFYVYAMGWYRQAPGKVRELVATISSSAGSTYYADSVKGRFTISRDNAKNTVYLQMNSLKPEDTAVYYCIADSFLSWVYRYVYYGSAYWGQGSQVTVSS”, the “polyreactivity (PSR sort gate)” value was “low polyreactivity”. With “QVQLVESGGGLVQAGGSLRLSCAASGSIFYVYAMGWYRQAPGNERELVAVIRRGGSTKYADSVKGRFTISRDNAKNTVYLQMNSLKPEDTAVYYCNVVGYAYGWQYDYWGQGTQVTVSS” the “polyreactivity (PSR sort gate)” value was “high polyreactivity”. For “QVQLVESGGGLVQAGGSLRLSCAASGSIFYWNAMGWYRQAPGKDREFVAAISRSGGSTYYADSVKGRFTISRDNGKNTVYLQMYSLKPEDTAVYFCAADVFYFTYDYWGQCTQVTVSS”, the “polyreactivity (PSR sort gate)” value was “low polyreactivity”. In the case of “QVQLVESGGGLVQAGGSLRLSCAASGSIFYWNAMGWYRQAPGKERELVAAISYNGGSTYYADSVKGRFTISRDNAKNTVYLQMNSLKPEDTAVYYCARLDSAAEPRQYDYWGQGTQVTVSS”, the “polyreactivity (PSR sort gate)” value is reported as “high polyreactivity”. In the case of “QVQLVESGGGLVQAGGSLRLSCAASGSIFYYAMGWYRQAPGKERELVAAITWRGGRTYYADSVKGRFTISRDNAKNTVYLQMNSLKPEDTAVYYCNAVAPGKYNHWGQGTQVTVSS”, the “polyreactivity (PSR sort gate)” value is reported as “high polyreactivity”. With “QVQLVESGGGLVQAGGSLRLSCAASGSIFYYNAMGWNRQAPGKERELVAASTTRGGSTYYADSVKGRFTISRDNAKNTVYLQMYSLKPVDTEVYYCARSSRGKLDYWGQGTQVTVSS” the “polyreactivity (PSR sort gate)” value was “low polyreactivity”. For “QVQLVESGGGLVQAGGSLRLSCAASGSIFYYNAMGWSRQAPGKERELVAAIRSTGSSNDADSVKGRFTISRDNAKNTVYLQMNSLKPEDTAVYYCAADQYGRSRDYGYGYWGHGTQVTVSS”, the “polyreactivity (PSR sort gate)” value was “low polyreactivity”. For “QVQLVESGGGLVQAGGSLRLSCAASGSIFYYNAMGWYIQAPGKEREFVAAISSSGGSTYYADSVMGRFTISRDNAKNNVYLQMYRLKPEDTAVYYCAAKLRHWAHHTKYDYWGQGTQLTVSS”, the “polyreactivity (PSR sort gate)” value was “low polyreactivity”. With “QVQLVESGGGLVQAGGSLRLSCAASGSIFYYNTMGWYRQAPGKERELVAAISRSGTSTFYADSVKGRFTISRDYAKNTVYLQMNSLKPEDTAVYYCNAESLGWYRLYTVDYWGQGTQVTVSS” the “polyreactivity (PSR sort gate)” value was “low polyreactivity”. With “QVQLVESGGGLVQAGGSLRLSCAASGSIFYYYAMGWYRPAPGKERELVAAINSSGGNTYYADSVKGRFTISRDNAKNTVYLQMNSLKPEDTAVYYCAAASRSTNYNYWGQGTQVTVSS” the “polyreactivity (PSR sort gate)” value was “high polyreactivity”. With “QVQLVESGGGLVQAGGSLRLSCAASGSIFYYYAMGWYRQAPGKERELVAAINSGVSTYYADSVKGRFTISRDNAKNTVYLQMNSLKPEDTAVYYCAAPGHNLYGSWFSWTPDTYDYWGQGTQVTVSS” the “polyreactivity (PSR sort gate)” value was “low polyreactivity”. With “QVQLVESGGGLVQAGGSLRLSCAASGSIFYYYAMGWYRQAPGKERELVAAINSGVSTYYADSVKGRFTISRDNAKNTVYLQMNSLKPEDTAVYYCDATGHNLYGSWFSWTPDTYDYWGQGTQVTVSS” the “polyreactivity (PSR sort gate)” value was “low polyreactivity”. In the case of “QVQLVESGGGLVQAGGSLRLSCAASGSIFYYYAMGWYRQAPGKERELVAAISKSGGSTYADSVKGRFTISRDNAKNTVYLQMNSLKPEDTAVYYCAATYYYSWYAFNYWGQGTQVTVSS”, the “polyreactivity (PSR sort gate)” value is reported as “low polyreactivity”. For “QVQLVESGGGLVQAGGSLRLSCAASGSIFYYYTMGWYRQAPGKERELVAAITWSGGRTYYADSVKGRFTISRDNAKNTVYLQMNSLKPEDTAVYYCNVDPYYGGIGDYWGQGTQVTVSS”, the “polyreactivity (PSR sort gate)” value was “high polyreactivity”. In the case of “QVQLVESGGGLVQAGGSLRLSCAASGSIIAANAMGWYRQAPGKERELVAAITFDSGSTHYADSVKGRFTISRDNAKNTFYLQMNSLKPEDTAVYYCAVRDFNSDYDDWGQGTQVTVSS”, the “polyreactivity (PSR sort gate)” value is reported as “low polyreactivity”. For “QVQLVESGGGLVQAGGSLRLSCAASGSIIAGYTMGWYRQAPGKERELVAGIRRGGSTNYADSVKGRFTISRDNAKNTVYLQMNSLKPEDTAVYYCAAYYRLDYDYWGQGTQVTVSS”, the “polyreactivity (PSR sort gate)” value was “high polyreactivity”. In the case of “QVQLVESGGGLVQAGGSLRLSCAASGSIIARYAMGSYRQAPGKERELVATITRGGSTNYADSVKGRFTISRDNAKNTVYLQMNSLKPEDTAVYYCARTSYGRLDYWGQGTQVTVSS”, the “polyreactivity (PSR sort gate)” value is reported as “low polyreactivity”. For “QVQLVESGGGLVQAGGSLRLSCAASGSIIDTYAMGWYRQAPGKERELVASWSGGSTYYADSVKGRFTISRDNAKNTVYLQMNSLKPEDTAVYYCAKDYYVQPPGTRDDYWGQGTQVTVSS”, the “polyreactivity (PSR sort gate)” value was “low polyreactivity”. For “QVQLVESGGGLVQAGGSLRLSCAASGSIIDYYARGWYRQAPGKERELVAAISDSGSTYYADSVKGRFTISRDNAKNTVYLQMNSLKPEDTAVYYCAAVLWSPYRSEPLDTYEYWGQGTQVNVSS”, the “polyreactivity (PSR sort gate)” value was “low polyreactivity”. With “QVQLVESGGGLVQAGGSLRLSCAASGSIIFVNAMGWYRQAPGKERELVADISSGGSTNYADSVKGRFTISRDNAKNTVYLLMNSLKPEDTAVYYCNTDEPPIYERFPYDYWGQGTQVNVSS” the “polyreactivity (PSR sort gate)” value was “low polyreactivity”. In the case of “QVQLVESGGGLVQAGGSLRLSCAASGSIIGRNAMGWYRQAPGQEREMVAAISTRGGRTYYADSVKGRFTISRDNAKNNDYLQMNSLKPEDTAVYYCAAVGPYRWYDYWGQGTQVTVSS”, the “polyreactivity (PSR sort gate)” value is reported as “high polyreactivity”. With “QVQLVESGGGLVQAGGSLRLSCAASGSIIGRYAMGWYRQAPGKERELVAAISKNGGSRYYADSVKGRFTISRDNAKNTVYLQMNSLKPEDTAVYYCNTVRYSCNYRDQEGDYWGQGTQVTVSS” the “polyreactivity (PSR sort gate)” value was “high polyreactivity”. With “QVQLVESGGGLVQAGGSLRLSCAASGSIIGTNVMGWYRQAPGKERELVASISYRDGTTYYADSVKGRFTISRDNAKNTLYLQMNSLKPEDTAVYYCAVANYYSYYWGQGTQVTVSS” the “polyreactivity (PSR sort gate)” value was “low polyreactivity”. In the case of “QVQLVESGGGLVQAGGSLRLSCAASGSIIHSYAMGWYRQAPGKERELVAAISRNGGSTYYADSVKGRFTISRDNAKITVYLQMNSLKPEDTAVYYCAKTYSQTWRYGYWGQGTQVTVSS”, the “polyreactivity (PSR sort gate)” value is reported as “high polyreactivity”. For “QVQLVESGGGLVQAGGSLRLSCAASGSIIHYTMGWYRQAPGKERELVAAISKSGGSTYYADSVKGRFTISRDNAKNTVYLQMNSLKPEDTAVYYCAAVGYYAWTFGYDYWGQGTQVTVSS”, the “polyreactivity (PSR sort gate)” value was “high polyreactivity”. With “QVQLVESGGGLVQAGGSLRLSCAASGSIIIGNTMGWYRQAPGKERELVATIRRSGSRTYYADSVKGRFTISRDNAKNTVYLQMNSLKPEDTAVYYCAADRLRTSGYKTIYDYWGQGTQVTVSS” the “polyreactivity (PSR sort gate)” value was “low polyreactivity”. In the case of “QVQLVESGGGLVQAGGSLRLSCAASGSIILAYAMGWYRQAPGKERELVAAITGSGGRTYADSVKGRFTISRDNAKNTVYLEMNSLKPEVTAVYYFAAYYYGNWQGYYWGQGTQVIVSS”, the “polyreactivity (PSR sort gate)” value is reported as “low polyreactivity”.

— the nanobody polyreactivity screen of Harvey et al. (2022)
